Measured values reported in US10280205B2, “Method for treating cancer with an activated T lymphocyte that selectively recognizes a cancer cell consisting of specific peptide” (immatics biotechnologies GmbH, priority 2015, dated 2019).

target: HLA-A*02:01 (Homo sapiens, UniProt P04439, D140Y/D185E/D98H/E176V/E277Q/G131W/G231S/I119V/I121R/I166T/I218V/L300P/L318F/N151K/N90K/P208A/P217A/Q86G/Q94H/R138H/R169H/T345S); assay: MHC binding assay: UV-ligand exchange with beta2m ELISA (exchange yield); settings: binding to HLA-A*02:01, β2m ELISA
Method in brief: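 Peptide–HLA-A*02:01 complexes formed by UV-induced exchange of a photocleavable ligand for the test peptide. Exchange products diluted 100-fold and captured on streptavidin-coated plates. Stabilized complexes detected with HRP anti-β2m (1 h, 37° C.) and TMB, A450; exchange yield reported.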

Substance | Peptide exchange (MHC class I binding score, peptide exchange yield)
589 (KLYPQLPAEI; listed as Homo sapiens) [compound 589] | “+++” (≥50 = +++)
72 (SLLELDGINL; listed as Homo sapiens) [compound 72] | “+++” (≥50 = +++)
383 (ALLELENSVTL; listed as Homo sapiens) [compound 383] | “+++” (≥50 = +++)
427 (ALLPLSPYL; listed as Homo sapiens) [compound 427] | “+++” (≥50 = +++)
22 (IMEENPGIFAV; listed as Homo sapiens) [compound 22] | “+++” (≥50 = +++)
245 (SMIDDLLGV; listed as Homo sapiens) [compound 245] | “+++” (≥50 = +++)
16 (VLFQGQASL; listed as Homo sapiens) [compound 16] | “+++” (≥50 = +++)
328 (ALNDQVFEI; listed as Homo sapiens) [compound 328] | “+++” (≥50 = +++)
612 (YLYNEGLSV; listed as Homo sapiens) [compound 612] | “+++” (≥50 = +++)
513 (SLWPSPEQL; listed as Homo sapiens) [compound 513] | “++” (≥20% = ++)
468 (YLRSVGDGETV; listed as Homo sapiens) [compound 468] | “+++” (≥50 = +++)
473 (AMATESILHFA; listed as Homo sapiens) [compound 473] | “+++” (≥50 = +++)
30 (LILDWVPYI; listed as Homo sapiens) [compound 30] | “+++” (≥50 = +++)
608 (SLLSVSHAL; listed as Homo sapiens) [compound 608] | “+++” (≥50 = +++)
194 (ALPLFVITV; listed as Homo sapiens) [compound 194] | “+++” (≥50 = +++)
9 (GAAKDLPGV; listed as Homo sapiens) [compound 9] | “++” (≥20% = ++)
214 (FLLDLDPLLL; listed as Homo sapiens) [compound 214] | “+++” (≥50 = +++)
103 (TLAEEVVAL; listed as Homo sapiens) [compound 103] | “+++” (≥50 = +++)
246 (LLWEVVSQL; listed as Homo sapiens) [compound 246] | “+++” (≥50 = +++)
226 (MLYVVPIYL; listed as Homo sapiens) [compound 226] | “++” (≥20% = ++)
274 (SLLFSLFEA; listed as Homo sapiens) [compound 274] | “++” (≥20% = ++)
50 (SLSELEALM; listed as Homo sapiens) [compound 50] | “+++” (≥50 = +++)

Second part, the substance after the results:

Peptide exchange (MHC class I binding score, peptide exchange yield) | Substance
“+++” (≥50 = +++) | 616 (VLIDEVESL; listed as Homo sapiens) [compound 616]
“+++” (≥50 = +++) | 75 (GLLEVMVNL; listed as Homo sapiens) [compound 75]
“+++” (≥50 = +++) | 171 (LLLPLQILL; listed as Homo sapiens) [compound 171]
“+++” (≥50 = +++) | 500 (SLMEDQVLQL; listed as Homo sapiens) [compound 500]
“++++” (≥75% = ++++) | 51 (LLPDLEFYV; listed as Homo sapiens) [compound 51]
“+++” (≥50 = +++) | 366 (RLLDMGETDLML; listed as Homo sapiens) [compound 366]
“+++” (≥50 = +++) | 161 (ALLEGVNTV; listed as Homo sapiens) [compound 161]
“+++” (≥50 = +++) | 106 (LLYDAVHIVSV; listed as Homo sapiens) [compound 106]
“+++” (≥50 = +++) | 454 (KLPPPPPQA; listed as Homo sapiens) [compound 454]
“+++” (≥50 = +++) | 280 (VLPDPEVLEAV; listed as Homo sapiens) [compound 280]
“+++” (≥50 = +++) | 452 (ILLEHGADPNL; listed as Homo sapiens) [compound 452]
“+++” (≥50 = +++) | 593 (GLPRFGIEMV; listed as Homo sapiens) [compound 593]
“+++” (≥50 = +++) | 223 (ALLENIALYL; listed as Homo sapiens) [compound 223]
“+++” (≥50 = +++) | 583 (ILANDGVLLAA; listed as Homo sapiens) [compound 583]
“+++” (≥50 = +++) | 151 (KILQQLVTL; listed as Homo sapiens) [compound 151]
“+++” (≥50 = +++) | 254 (TLLAFIMEL; listed as Homo sapiens) [compound 254]
“+++” (≥50 = +++) | 547 (TLDITPHTV; listed as Homo sapiens) [compound 547]
“+++” (≥50 = +++) | 517 (LLMPIPEGLTL; listed as Homo sapiens) [compound 517]
“++” (≥20% = ++) | 451 (LLLLDTVTMQV; listed as Homo sapiens) [compound 451]
“+++” (≥50 = +++) | 266 (KITDTLIHL; listed as Homo sapiens) [compound 266]
“+++” (≥50 = +++) | 45 (SLWQDIPDV; listed as Homo sapiens) [compound 45]
“+++” (≥50 = +++) | 507 (KLIDDQDISISL; listed as Homo sapiens) [compound 507]
“++” (≥20% = ++) | 458 (SLIDKLYNI; listed as Homo sapiens) [compound 458]
“+++” (≥50 = +++) | 71 (GILARIASV; listed as Homo sapiens) [compound 71]
“+++” (≥50 = +++) | 97 (SLINGSFLV; listed as Homo sapiens) [compound 97]
